The supplement of paper PMC9116672
± gives the standard deviation of the averaged measurements or the uncertainty stated by the source.

Columns and labels:
[1] = duplex formation free energy ΔG50 (Van't Hoff fit of HRM Tm); higher = less stable duplex; conditions: temperature for dG: 50 °C, NaCl: 500 mM (unadjusted)
Protocol: (§1)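 Duplex of the listed DNA strand with its complement, in 1x NNE buffer (500 mM NaCl, pH 7.0) with 1x EvaGreen. ΔH and ΔS come from a Van't Hoff linear fit of 1/Tm against ln(CT/4) over 1-20 uM, using HRM Tm values.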

[2] = duplex formation entropy ΔS (Van't Hoff fit of HRM Tm); higher = smaller entropy loss on duplex formation; conditions: temperature for dG: 50 °C, NaCl: 500 mM (unadjusted)
Protocol: as §1

[3] = duplex melting temperature (HRM, EvaGreen); higher = more stable duplex
Protocol: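 Listed DNA strand annealed 1:1 with its complementary strand (95 °C 5 min, 0.1 °C/s to 20 °C). Melted in 1x NNE buffer (500 mM NaCl, 10 mM Na2HPO4, 1 mM EDTA, pH 7.0) with 1x EvaGreen on a LightCycler96 (37 to 97 °C, 0.1 °C/s). Tm is the peak of -dF/dT at the stated total duplex concentration; 4 replicates are averaged. PS oligos are non-stereospecific (Rp/Sp mixtures).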

[4] = duplex formation enthalpy ΔH (Van't Hoff fit of HRM Tm); higher = less exothermic duplex formation; conditions: temperature for dG: 50 °C, NaCl: 500 mM (unadjusted)
Protocol: as §1

[5] = backbone: PO-PO (both strands phosphodiester DNA)
[6] = backbone: PS-PO (listed strand fully phosphorothioate, complement phosphodiester)
[7] = backbone: PS-PS (both strands fully phosphorothioate)
[8] = duplex concentration 1 µM, backbone: PO-PO (both strands phosphodiester DNA)
[9] = duplex concentration 1 µM, backbone: PS-PS (both strands fully phosphorothioate)
[10] = duplex concentration 2.5 µM, backbone: PO-PO (both strands phosphodiester DNA)
[11] = duplex concentration 2.5 µM, backbone: PS-PO (listed strand fully phosphorothioate, complement phosphodiester)
[12] = duplex concentration 2.5 µM, backbone: PS-PS (both strands fully phosphorothioate)
[13] = duplex concentration 5 µM, backbone: PO-PO (both strands phosphodiester DNA)
[14] = duplex concentration 5 µM, backbone: PS-PO (listed strand fully phosphorothioate, complement phosphodiester)
[15] = duplex concentration 5 µM, backbone: PS-PS (both strands fully phosphorothioate)
[16] = duplex concentration 7.5 µM, backbone: PO-PO (both strands phosphodiester DNA)
[17] = duplex concentration 7.5 µM, backbone: PS-PO (listed strand fully phosphorothioate, complement phosphodiester)
[18] = duplex concentration 7.5 µM, backbone: PS-PS (both strands fully phosphorothioate)
[19] = duplex concentration 10 µM, backbone: PO-PO (both strands phosphodiester DNA)
[20] = duplex concentration 10 µM, backbone: PS-PO (listed strand fully phosphorothioate, complement phosphodiester)
[21] = duplex concentration 10 µM, backbone: PS-PS (both strands fully phosphorothioate)
[22] = duplex concentration 15 µM, backbone: PO-PO (both strands phosphodiester DNA)
[23] = duplex concentration 15 µM, backbone: PS-PO (listed strand fully phosphorothioate, complement phosphodiester)
[24] = duplex concentration 15 µM, backbone: PS-PS (both strands fully phosphorothioate)
[25] = duplex concentration 20 µM, backbone: PO-PO (both strands phosphodiester DNA)
[26] = duplex concentration 20 µM, backbone: PS-PO (listed strand fully phosphorothioate, complement phosphodiester)
[27] = duplex concentration 20 µM, backbone: PS-PS (both strands fully phosphorothioate)
[28] = duplex concentration 1 µM, backbone: PS-PO (listed strand fully phosphorothioate, complement phosphodiester)

Sequence | duplex formation free energy ΔG50 [1, 5] [kcal/mol] | duplex formation free energy ΔG50 [1, 6] [kcal/mol] | duplex formation free energy ΔG50 [1, 7] [kcal/mol] | duplex formation entropy ΔS [2, 5] [cal/mol/K] | duplex formation entropy ΔS [2, 6] [cal/mol/K] | duplex formation entropy ΔS [2, 7] [cal/mol/K] | duplex melting temperature [3, 8] [°C] | duplex melting temperature [3, 9] [°C] | duplex melting temperature [3, 10] [°C] | duplex melting temperature [3, 11] [°C] | duplex melting temperature [3, 12] [°C] | duplex melting temperature [3, 13] [°C] | duplex melting temperature [3, 14] [°C] | duplex melting temperature [3, 15] [°C] | duplex melting temperature [3, 16] [°C] | duplex melting temperature [3, 17] [°C] | duplex melting temperature [3, 18] [°C] | duplex melting temperature [3, 19] [°C] | duplex melting temperature [3, 20] [°C] | duplex melting temperature [3, 21] [°C] | duplex melting temperature [3, 22] [°C] | duplex melting temperature [3, 23] [°C] | duplex melting temperature [3, 24] [°C] | duplex melting temperature [3, 25] [°C] | duplex melting temperature [3, 26] [°C] | duplex melting temperature [3, 27] [°C] | duplex formation enthalpy ΔH [4, 5] [kcal/mol] | duplex formation enthalpy ΔH [4, 6] [kcal/mol] | duplex formation enthalpy ΔH [4, 7] [kcal/mol] | duplex melting temperature [3, 28] [°C]
CGTGTGGATAATTAGCT | -12.67 ± 0.099 | -10.86 ± 0.074 | -8.757 ± 0.024 | -220 ± 5.9 | -217 ± 7.2 | -221 ± 9.2 | 61.98 ± 0.083 | 45.73 ± 0.44 | 64.1 ± 0.3 | 56.74 ± 0.17 | 48.55 ± 0.15 | 65.87 ± 0.1 | 58.92 ± 0.14 | 50.38 ± 0.16 | 66.87 ± 0.1 | 59.81 ± 0.096 | 51.21 ± 0.21 | 67.8 ± 0.11 | 60.627 ± 0.006 | 51.88 ± 0.24 | 68.959 ± 0.05 | 61.686 ± 0.014 | 52.84 ± 0.21 | 69.9 ± 0.083 | 62.48 ± 0.14 | 53.67 ± 0.26 | -83.9 ± 2 | -81 ± 2.4 | -80.3 ± 3 | –
CTAAACTGTTATAGCCGG | -13.2 ± 0.46 | -11.2 ± 0.12 | -8.979 ± 0.029 | -219 ± 24 | -205 ± 9.7 | -166 ± 7.6 | – | 46.18 ± 0.36 | 66.43 ± 0.32 | 58.77 ± 0.43 | 48.97 ± 0.4 | 67.83 ± 0.25 | 60.28 ± 0.38 | 51.09 ± 0.26 | 68.83 ± 0.28 | 61.66 ± 0.5 | 52.63 ± 0.18 | 70.13 ± 0.37 | 62.55 ± 0.4 | 53.4 ± 0.36 | 71.19 ± 0.13 | 63.71 ± 0.22 | 55.1 ± 0.25 | 72.08 ± 0.077 | 64.43 ± 0.18 | 56.27 ± 0.23 | -83.8 ± 8.2 | -77.5 ± 3.3 | -62.5 ± 2.5 | –
CTACCAGCGGCGCCGTT | -16.7 ± 0.4 | -13.3 ± 0.16 | -12.69 ± 0.1 | -235 ± 13 | -163 ± 6.5 | -185 ± 5.4 | – | 63.52 ± 0.26 | 78.66 ± 0.28 | 71.69 ± 0.5 | 66.46 ± 0.23 | 80.52 ± 0.35 | 74.62 ± 0.28 | 68.88 ± 0.19 | 81.81 ± 0.23 | 75.97 ± 0.31 | 70.02 ± 0.24 | 82.55 ± 0.18 | 76.92 ± 0.17 | 71 ± 0.18 | 83.52 ± 0.2 | 78.15 ± 0.26 | 72.23 ± 0.12 | 84.24 ± 0.2 | 79.05 ± 0.47 | 73.06 ± 0.32 | -92.6 ± 4.5 | -66.1 ± 2.3 | -72.5 ± 1.8 | 68.2 ± 0.97
CTCAGAGTAGAGCCGA | -12.5 ± 0.13 | -11.45 ± 0.047 | -9.827 ± 0.057 | -179 ± 6.5 | -183 ± 3.4 | -182 ± 8.6 | 63.68 ± 0.069 | 49.9 ± 1.1 | 65.7 ± 0.74 | 60.75 ± 0.31 | 53.32 ± 0.14 | 68.22 ± 0.15 | 63.08 ± 0.2 | 55.65 ± 0.051 | 69.47 ± 0.26 | 64.34 ± 0.11 | 56.75 ± 0.12 | 70.41 ± 0.2 | 65.17 ± 0.17 | 57.39 ± 0.097 | 71.91 ± 0.23 | 66.49 ± 0.15 | 58.63 ± 0.12 | 72.85 ± 0.2 | 67.47 ± 0.082 | 59.42 ± 0.24 | -70.2 ± 2.2 | -70.4 ± 1.1 | -68.5 ± 2.8 | 57.92 ± 0.21
CTCGGAGGCCCCATTTA | -13.2 ± 0.19 | -11.87 ± 0.061 | -11.22 ± 0.074 | -172 ± 7.8 | -167 ± 3.5 | -194 ± 6.1 | – | 56.27 ± 0.32 | 69.45 ± 0.55 | 63.65 ± 0.44 | 59.31 ± 0.12 | 72.34 ± 0.17 | 66.33 ± 0.23 | 61.51 ± 0.1 | 73.72 ± 0.22 | 67.63 ± 0.23 | 62.63 ± 0.089 | 74.68 ± 0.39 | 68.67 ± 0.14 | 63.34 ± 0.086 | 76.04 ± 0.34 | 69.97 ± 0.17 | 64.55 ± 0.08 | 76.97 ± 0.28 | 70.91 ± 0.14 | 65.31 ± 0.13 | -68.7 ± 2.7 | -66 ± 1.2 | -73.9 ± 2 | 60.53 ± 0.43
